This is an account of results in article doi:10.1101/754457.

The target of assay [1] is Mto2-134A136A (full-length, recombinant) (S. pombe) (UniProt Q9USP7). Briefly: SEC-MALS.
Assay [2] has as its target Mto2-134AAA (full-length, recombinant) (S. pombe) (UniProt Q9USP7). Briefly: SEC-MALS.

As to “Mto2-134A136A (full-length, recombinant) (from UniProt Q9USP7 1-397) (natural protein)”, the stoichiometry N in assay [1] is 2.

On to “Mto2-134AAA (full-length, recombinant) (from UniProt Q9USP7 1-397) (natural protein)”, for which the stoichiometry N in assay [2] came to 2.
